Experiment [1] concerns the target T1, human transferrin receptor (recombinant, for surface plasmon resonance) (human, UniProt P02786 89-760).
T1 construct: also called huTfR; human transferrin receptor-biotinylated
In words: SPR B4000 25C.

The target in experiment [2] is T2, complement factor C1q (Sigma, C1740) (UniProt P02745 23-245; P02746 28-253; P02747 29-245).
T2 construct: Bought
Briefly: flow cytometry, C1q on antibody-coated BT-474 cells.

Experiment [3] deals with T1, human transferrin receptor …. Briefly: BIAcore T200 25C.
For experiment [4] the target is unchanged. Briefly: SPR 25C.
Experiment [5] has as its target T3, Her2 ECD (amino acids 1 to 629 of matured HER2 with C-terminal avi-tag and His-tag) (human, UniProt P04626 23-652).
T3 construct: also called purified Her2
Briefly: SPR, Ab captured, Her2 analyte.

Experiment [6] concerns the target T3, Her2 ECD (amino acids 1 to 629 of …). Briefly: SPR, Ab captured, Her2 analyte. This is another data set of the same source.
Experiment [7] shares this target. In words: SPR, Fab from bacterial supernatant captured, Her2 analyte. Background: In SPR one partner is held on a chip, and binding of the other changes the refractive index at the surface.
Experiment [8] shares this target. In words: SPR, Ab captured, Her2 analyte. The source holds these as a separate data set.

Like-named read-outs stand apart in the source and are kept apart here.

As usually defined, the koff is the first-order rate constant of dissociation. For orientation: Kd means the constant that tells how readily two partners part at equilibrium. As usually defined, the kon is a measure of how fast the partners come together.

T1 sequence (P02786 89-760 limits assumed): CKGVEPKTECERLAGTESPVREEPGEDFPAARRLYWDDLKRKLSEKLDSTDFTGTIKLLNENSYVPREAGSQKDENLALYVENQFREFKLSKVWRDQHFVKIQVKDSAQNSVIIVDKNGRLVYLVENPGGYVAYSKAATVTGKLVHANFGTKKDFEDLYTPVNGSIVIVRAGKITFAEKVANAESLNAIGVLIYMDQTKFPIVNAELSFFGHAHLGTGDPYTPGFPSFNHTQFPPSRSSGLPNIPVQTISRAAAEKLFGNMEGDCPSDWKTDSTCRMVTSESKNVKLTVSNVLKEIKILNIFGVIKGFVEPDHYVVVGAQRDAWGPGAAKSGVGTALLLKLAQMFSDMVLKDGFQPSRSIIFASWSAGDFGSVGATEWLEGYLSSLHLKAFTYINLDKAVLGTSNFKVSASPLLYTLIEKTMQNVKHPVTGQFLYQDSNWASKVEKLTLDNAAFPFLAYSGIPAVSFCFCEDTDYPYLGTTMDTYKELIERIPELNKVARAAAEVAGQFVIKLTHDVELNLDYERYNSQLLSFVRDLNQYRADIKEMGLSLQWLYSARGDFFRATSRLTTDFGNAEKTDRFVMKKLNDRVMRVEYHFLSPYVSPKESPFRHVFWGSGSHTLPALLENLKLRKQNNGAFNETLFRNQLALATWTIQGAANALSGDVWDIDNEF
T2 sequence (P02745 23-245, chain 1 of 3): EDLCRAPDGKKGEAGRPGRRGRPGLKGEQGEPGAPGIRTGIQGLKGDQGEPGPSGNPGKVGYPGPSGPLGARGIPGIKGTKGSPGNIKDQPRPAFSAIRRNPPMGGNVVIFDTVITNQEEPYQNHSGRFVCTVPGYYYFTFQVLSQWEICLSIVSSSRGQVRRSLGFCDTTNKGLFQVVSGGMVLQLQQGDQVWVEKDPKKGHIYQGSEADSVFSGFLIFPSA
T2 sequence (P02746 28-253, chain 2 of 3): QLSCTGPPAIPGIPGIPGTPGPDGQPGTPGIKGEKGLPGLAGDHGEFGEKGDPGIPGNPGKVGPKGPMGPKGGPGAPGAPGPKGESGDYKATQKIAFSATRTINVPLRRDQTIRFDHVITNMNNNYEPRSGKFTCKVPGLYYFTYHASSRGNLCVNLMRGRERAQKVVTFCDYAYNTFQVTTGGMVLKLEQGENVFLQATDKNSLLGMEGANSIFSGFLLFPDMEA
T2 sequence (P02747 29-245, chain 3 of 3): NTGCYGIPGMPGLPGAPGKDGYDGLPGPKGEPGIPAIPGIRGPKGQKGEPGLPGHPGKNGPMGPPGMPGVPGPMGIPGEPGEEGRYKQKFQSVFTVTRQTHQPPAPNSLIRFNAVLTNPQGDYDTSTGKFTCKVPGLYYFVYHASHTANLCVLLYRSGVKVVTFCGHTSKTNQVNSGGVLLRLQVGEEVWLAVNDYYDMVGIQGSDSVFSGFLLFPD

B1: VH9-DANG/VK9-CYS (antibody, V domains shown)
VH: QQLLESGGGLVQPGGSLRLSCAASGFTFSSYAMSWVRQAPGKGLEWVGYIWSGGSTDYADSVKGRFTISRDNSKNTLYLQMNSLRAEDTAVYYCAKRYGTSYPDYGDANGFDPWGQGTLVTVSS
VL: AIQLTQSPSSLSASVGDRVTITCRASQSISSYLAWYQQKPGKAPKLLIYRASTLASGVPSRFSGSGSGTDFTLTISSLQPEDFATYYCQQCYSSSNVDNTFGGGTKVEIK
With B1, the koff in experiment [1] amounted to 0.00652 s⁻¹.

B2: Herceptarg CLC D1-der G2 (glycoengineered variant) (bispecific antibody, human IgG1, kappa)
heavy 1: not shown
heavy 2: not shown
light: DIQMTQSPSSLSASVGDRVTITCKASQDVSTAVAWYQQKPGKAPKLLIYSASFRYTGVPSRFSGSRSGTDFTLTISSLQPEDFATYYCQQHYTTPPTFGQGTKVEIKRTVAAPSVFIFPPSDEQLKSGTASVVCLLNNFYPREAKVQWKVDNALQSGNSQESVTEQDSKDSTYSLSSTLTLSKADYEKHKVYACEVTHQGLSSPVTKSFNRGEC
notes: also called bispecific anti-HER2 antibody, common light chain, glycoengineered (D1 der)
As to B2, the “PE-signal (geomean)” value in experiment [2] came to 1040.

B3: CrossMab-CDRG Her2GlyMab (bispecific antibody, human IgG1, kappa)
heavy 1: not shown
light 1: DIQMTQSPSSLSASVGDRVTITCKASQDVSIGVAWYQQKPGKAPKLLIYSASYRYTGVPSRFSGSGSGTDFTLTISSLQPEDFATYYCQQYYIYPYTFGQGTKVEIKSSASTKGPSVFPLAPSSKSTSGGTAALGCLVKDYFPEPVTVSWNSGALTSGVHTFPAVLQSSGLYSLSSVVTVPSSSLGTQTYICNVNHKPSNTKVDKKVEPKSC
heavy 2: not shown
light 2: DIQLTQPPSVSVAPGQTARITCGASQDVSTAVAWYQQKPGQAPVLVVYSASFLYSGIPSRFSGSRSGTDFTLTISRVEAGDEADYYCQQHYTTPPTFGTGTKVTVLRTVAAPSVFIFPPSDEQLKSGTASVVCLLNNFYPREAKVQWKVDNALQSGNSQESVTEQDSKDSTYSLSSTLTLSKADYEKHKVYACEVTHQGLSSPVTKSFNRGEC
notes: also called Herceptarg CrossMab; Herceptarg crossmab; copies: 1 + 1 + 1 + 1
Turning to B3, the “PE-signal (geomean)” value in experiment [2] was determined as 489.

B4: 2/99 VH23-DANG/VL9-NYA (antibody, V domains shown)
VH: QSMQESGPGLVKPSQTLSLTCTVSGFSLSSYAMSWIRQHPGKGLEWIGYIWSGGSTDYASWAKSRVTISKTSTTVSLKLSSVTAADTAVYYCARRYGTSYPDYGDANGFDPWGQGTLVTVSS
VL: AIQLTQSPSSLSASVGDRVTITCRASQSISSYLAWYQQKPGKAPKLLIYRASTLASGVPSRFSGSGSGTDFTLTISSLQPEDFATYYCQQNYASSNVDNTFGGGTKVEI
notes: also called VH23-DANG/VL09-NYA; VH23-DANG with VK9-NYA
Regarding B4, the koff in experiment [1] is 0.00883 s⁻¹; in experiment [3], 0.00883 s⁻¹; in experiment [4] it was 0.000769 s⁻¹. In addition, in experiment [3], the dissociation constant Kd amounted to 57.2 nM. The kon in experiment [3] came to 155000 M⁻¹ s⁻¹.

B5: VH23-DASG/VL09-NYA (SEQ ID NO 192/193) (antibody, V domains shown)
VH: QSMQESGPGLVKPSQTLSLTCTVSGFSLSSYAMSWIRQHPGKGLEWIGYIWSGGSTDYASWAKSRVTISKTSTTVSLKLSSVTAADTAVYYCARRYGTSYPDYGDASGFDPWGQGTLVTVSS
VL: AIQLTQSPSSLSASVGDRVTITCRASQSISSYLAWYQQKPGKAPKLLIYRASTLASGVPSRFSGSGSGTDFTLTISSLQPEDFATYYCQQNYASSNVDNTFGGGTKVEI
notes: also called VH23-DASG/VK9-NYA
Turning to B5, the koff in experiment [1] was 0.0395 s⁻¹. In experiment [3], the Kd turned out to be 447 nM, the koff came to 0.0395 s⁻¹ and the kon turned out to be 88300 M⁻¹ s⁻¹.

B6: VH23-DANG/VK9-GYS (antibody, V domains shown)
VH: QSMQESGPGLVKPSQTLSLTCTVSGFSLSSYAMSWIRQHPGKGLEWIGYIWSGGSTDYASWAKSRVTISKTSTTVSLKLSSVTAADTAVYYCARRYGTSYPDYGDANGFDPWGQGTLVTVSS
VL: AIQLTQSPSSLSASVGDRVTITCRASQSISSYLAWYQQKPGKAPKLLIYRASTLASGVPSRFSGSGSGTDFTLTISSLQPEDFATYYCQQGYSSSNVDNTFGGGTKVEIK
As for B6, the off-rate constant (koff) in experiment [1] came out at 0.00396 s⁻¹.

B7: VH23-DAQG/VL09-NYA (SEQ ID NO 205/193) (antibody, V domains shown)
VH: QSMQESGPGLVKPSQTLSLTCTVSGFSLSSYAMSWIRQHPGKGLEWIGYIWSGGSTDYASWAKSRVTISKTSTTVSLKLSSVTAADTAVYYCARRYGTSYPDYGDAQGFDPWGQGTLVTVSS
VL: AIQLTQSPSSLSASVGDRVTITCRASQSISSYLAWYQQKPGKAPKLLIYRASTLASGVPSRFSGSGSGTDFTLTISSLQPEDFATYYCQQNYASSNVDNTFGGGTKVEI
notes: also called VH23-DAQG/VK9-NYA
For B7, the koff in experiment [1] is 0.0149 s⁻¹. For the same molecule, in experiment [3], the Kd was 113 nM, the koff worked out at 0.0137 s⁻¹ and the kon came to 121000 M⁻¹ s⁻¹.

B8: Pertuzumab HC x Pertuzumab (Tras.L3) LC (antibody, V domains shown)
VH: EVQLVESGGGLVQPGGSLRLSCAASGFTFTDYTMDWVRQAPGKGLEWVADVNPNSGGSIYNQRFKGRFTLSVDRSKNTLYLQMNSLRAEDTAVYYCARNLGPSFYFDYWGQGTLVTVSS
VL: DIQMTQSPSSLSASVGDRVTITCKASQDVSIGVAWYQQKPGKAPKLLIYSASYRYTGVPSRFSGSGSGTDFTLTISSLQPEDFATYYCQQHYTTPPTFGQGTKVEIK
notes: human IgG
In experiment [5], B8 showed a dissociation constant (Kd) of 4.96 nM, a koff of 0.00209 s⁻¹ and a kon of 422000 M⁻¹ s⁻¹. In experiment [6], this molecule showed a Kd of 26.7 nM, an off-rate (koff) of 0.00173 s⁻¹ and a kon of 64700 M⁻¹ s⁻¹.

B9: Trastuzumab HC x Pertuzumab (Tras.L3) LC (antibody, V domains shown)
VH: not shown
VL: DIQMTQSPSSLSASVGDRVTITCKASQDVSIGVAWYQQKPGKAPKLLIYSASYRYTGVPSRFSGSGSGTDFTLTISSLQPEDFATYYCQQHYTTPPTFGQGTKVEIK
notes: human IgG
Take B9: in experiment [5], the Kd was determined as 72.5 nM, the off-rate (koff) came to 0.0236 s⁻¹ and the kon amounted to 325000 M⁻¹ s⁻¹. In experiment [6], this molecule yielded a Kd of 1090 nM, a koff of 0.05 s⁻¹ and a kon of 41900 M⁻¹ s⁻¹.

B10: Pertuzumab aff.mat. clone E1 with common light chain (Fab, V domains shown)
VH: EVQLVESGGGLVQPGGSLRLSCAASGFTFADYTMDWVRQAPGKGLEWVADVNPNSGGSIYNQRFKGRFTLSVDRSKNTLYLQMNSLRAEDTAVYYCARNLGPWFYFDYWGQGTLVTVSS
VL: DIQMTQSPSSLSASVGDRVTITCKASQDVSTAVAWYQQKPGKAPKLLIYSASFRYTGVPSRFSGSRSGTDFTLTISSLQPEDFATYYCQQHYTTPPTFGQGTKVEIK
notes: bacterial Fab
Molecule B10 showed a Kd in experiment [7] of 0.5 nM.

B11: Pertuzumab aff.mat. clone D1 with common light chain (Fab, V domains shown)
VH: EVQLVESGGGLVQPGGSLRLSCAASGFTFNDYTMDWVRQAPGKGLEWVADVNPNSGGSIYNQRFKGRFTLSVDRSKNTLYLQMNSLRAEDTAVYYCARNLGPFFYFDYWGQGTLVTVSS
VL: DIQMTQSPSSLSASVGDRVTITCKASQDVSTAVAWYQQKPGKAPKLLIYSASFRYTGVPSRFSGSRSGTDFTLTISSLQPEDFATYYCQQHYTTPPTFGQGTKVEIK
notes: bacterial Fab with Flag-tag, from supernatant
B11 returned a Kd in experiment [7] of 1 nM.

B12: Pertuzumab aff.mat. clone A1 with common light chain (Fab, V domains shown)
VH: EVQLVESGGGLVQPGGSLRLSCAASGFTFTDYTMDWVRQAPGKGLEWVADVNPNSGGSIVNQRFKGRFTLSVDRSKNTLYLQMNSLRAEDTAVYYCARNLGPWFYFDYWGQGTLVTVSS
VL: DIQMTQSPSSLSASVGDRVTITCKASQDVSTAVAWYQQKPGKAPKLLIYSASFRYTGVPSRFSGSRSGTDFTLTISSLQPEDFATYYCQQHYTTPPTFGQGTKVEIK
notes: bacterial Fab
For the molecule B12, in experiment [7], binding was put at a Kd of 1 nM.

B13: Pertuzumab aff.mat. clone G2 with common light chain (Fab, V domains shown)
VH: EVQLVESGGGLVQPGGSLRLSCAASGFTFTDYTMDWVRQAPGKGLEWVADVNPNSGGYIVNRRFKGRFTLSVDRSKNTLYLQMNSLRAEDTAVYYCARNLGPSFYFDYWGQGTLVTVSS
VL: DIQMTQSPSSLSASVGDRVTITCKASQDVSTAVAWYQQKPGKAPKLLIYSASFRYTGVPSRFSGSRSGTDFTLTISSLQPEDFATYYCQQHYTTPPTFGQGTKVEIK
notes: bacterial Fab
In experiment [7], B13 showed a dissociation constant Kd of 1 nM.

B14: Pertuzumab aff.mat. clone B2 with common light chain (Fab, V domains shown)
VH: EVQLVESGGGLVQPGGSLRLSCAASGFTFNDYTMDWFRQAPGKGLEWVADVNPNSGGSIYNQRFKGRFTLSVDRSKNTLYLQMNSLRAEDTAVYYCARNLGPNFYFDYWGQGTLVTVSS
VL: DIQMTQSPSSLSASVGDRVTITCKASQDVSTAVAWYQQKPGKAPKLLIYSASFRYTGVPSRFSGSRSGTDFTLTISSLQPEDFATYYCQQHYTTPPTFGQGTKVEIK
notes: bacterial Fab
Molecule B14 displayed a Kd in experiment [7] of 1 nM.

B15: Pertuzumab aff.mat. clone C8 with common light chain (Fab, V domains shown)
VH: EVQLVESGGGLVQPGGSLRLSCAASGFTFTDYTMDWVRQAPGKGLEWVADVNPNSGGSIMNRRFKGRFTLSVDRSKNTLYLQMNSLRAEDTAVYYCARNLGPSFYFDYWGQGTLVTVSS
VL: DIQMTQSPSSLSASVGDRVTITCKASQDVSTAVAWYQQKPGKAPKLLIYSASFRYTGVPSRFSGSRSGTDFTLTISSLQPEDFATYYCQQHYTTPPTFGQGTKVEIK
notes: bacterial Fab
As to B15, in experiment [7], binding was characterised by a dissociation constant (Kd) of 3 nM.

B16: Trastuzumab HC x Pertuzumab (Tras.L3)(QM) LC (antibody, V domains shown)
VH: not shown
VL: DIQMTQSPSSLSASVGDRVTITCKASQDVSTAVAWYQQKPGKAPKLLIYSASFRYTGVPSRFSGSRSGTDFTLTISSLQPEDFATYYCQQHYTTPPTFGQGTKVEIK
In experiment [8], B16 gave a Kd of 0.202 nM, a koff of 5.42e-05 s⁻¹ and a kon of 269000 M⁻¹ s⁻¹.

These data come from patent US20180291110A1 (Hoffmann-La Roche, published 2018).
